4 molecules from US20210347873A1 (SHANGHAI PHARMAEXPLORER, published 2021) can be followed below.

The target of test [1] is biotinylated hBLyS-ECD (human) (UniProt Q9Y275). Kind of test: ELISA, coated antibody; biotinylated hBLyS-ECD 0.1 ng/mL. On the technique in general: ELISA stands for enzyme-linked immunosorbent assay.
The target is the same in test [2]. Kind of test: ELISA, coated antibody; biotinylated hBLyS-ECD 0.5 ng/mL.
For test [3] the target is unchanged. Kind of test: ELISA, coated antibody; biotinylated hBLyS-ECD 0.02 ng/mL.
For test [4] the target is unchanged. Kind of test: ELISA, coated antibody; biotinylated hBLyS-ECD 0.004 ng/mL.
The target is the same in test [5]. Kind of test: ELISA, coated antibody; biotinylated hBLyS-ECD 0.0008 ng/mL.
The target is the same in test [6]. Kind of test: ELISA, coated antibody; biotinylated hBLyS-ECD 0.00016 ng/mL.
The target is the same in test [7]. Put plainly: ELISA, coated antibody; biotinylated hBLyS-ECD 0.000006 ng/mL.
The target is the same in test [8]. Put plainly: ELISA, coated antibody; biotinylated hBLyS-ECD 0.000032 ng/mL.
The target in test [9] is T1, biotinylated hBLyS-ECD (human, UniProt Q9Y275 134-285, biotinylated with Biotin-X-X-NHS (molar ratio 7:1), sites not stated).
T1 construct: The hBLyS-ECD of Embodiment 1 after biotinylation (Embodiment 2); also called biotinylated immunogen; BLyS protein; not shown: His tag of the pCPC vector
Kind of test: ELISA: biotinylated hBLyS-ECD captured on streptavidin, antibody titrated, HRP secondary antibody.

In test [10] the target is T1, biotinylated hBLyS-ECD. Kind of test: receptor-ligand blocking ELISA: BAFF R coated, biotinylated hBLyS-ECD added with titrated antibody, HRP-avidin; blocked partner: BAFF R.
In test [11] the target is T1, biotinylated hBLyS-ECD. Kind of test: ELISA, biotinylated hBLyS-ECD captured on streptavidin; antibody 13.3 nM. As for the experimental part: (§1) Streptavidin was first diluted to a final concentration of 1.0 μg/mL with PBS, and then 50 μL of diluted streptavidin per well was aliquoted into 96-well ELISA plate, which was subsequently sealed with plastic film and incubated at 4° C. overnight. On the next day the plate was washed four times with the plate washing buffer [PBS buffer containing 0.05% (v/v) Tween20] and added with the blocking solution [PBS buffer containing 0.05% (v/v) Tween20 and 1% (w/w) BSA] and blocked for 2 hours at 37° C. The blocking solution was removed, the biotinylated hBLyS-ECD prepared in Embodiment 2 was diluted with PBS to a final concentration of 50 ng/mL and then aliquoted into the 96-well ELISA plate at 50 μL per well and incubated for 1 hour at 37° C. After rinsing the plate four times with the plate washing buffer [PBS buffer containing 0.05% (v/v) Tween20], 100 μl of the purified lead antibody harvested in Embodiment 1 and 2 was pipetted into each well. After incubation for 1 hour at 37° C., the plate was rinsed four times with the plate washing buffer [PBS buffer containing 0.05% (v/v) Tween20]. HRP-labeled (horseradish peroxidase) secondary antibody (purchased from Sigma) was added in and incubated at 37° C. for 1 hour. The plate was then rinsed four times with the plate washing buffer [PBS buffer containing 0.05% (v/v) Tween20]. 100 μL of TMB substrate was aliquoted into each well and after incubation for 5 minutes at room temperature, 100 μL of stop solution (1.0 N HCl) was aliquoted into each well. A₄₅₀ₙₘ values were read via an ELISA plate reader (SpectraMax M5e purchased from Molecular Devices) and the results were shown in FIGS. 5A-5B and Table 10.

The target of test [12] is T1, biotinylated hBLyS-ECD. Kind of test: ELISA, biotinylated hBLyS-ECD captured on streptavidin; antibody 2.67 nM. As to the method: as §1
Test [13] has as its target T1, biotinylated hBLyS-ECD. Put plainly: ELISA, biotinylated hBLyS-ECD captured on streptavidin; antibody 66.7 nM. As to the method:
as §1

Test [14] has as its target T1, biotinylated hBLyS-ECD. Kind of test: ELISA, biotinylated hBLyS-ECD captured on streptavidin; antibody 0.107 nM. As to the method: as §1
For test [15], the target named is T1, biotinylated hBLyS-ECD. Put plainly: ELISA, biotinylated hBLyS-ECD captured on streptavidin; antibody 0.534 nM. As to the method: as §1
Test [16] concerns the target T1, biotinylated hBLyS-ECD. Put plainly: ELISA, biotinylated hBLyS-ECD captured on streptavidin; antibody 0.0213 nM. As for the experimental part: as §1
The target of test [17] is T1, biotinylated hBLyS-ECD. Kind of test: ELISA, biotinylated hBLyS-ECD captured on streptavidin; antibody 0.00427 nM. As for the experimental part:
as §1

Test [18] concerns the target T1, biotinylated hBLyS-ECD. Kind of test: ELISA, biotinylated hBLyS-ECD captured on streptavidin; antibody 0 nM (blank). As for the experimental part: as §1
The target of test [19] is T2, human BLyS (full length, arginine 132 mutated to histidine) on CHO-K1 cells (human, UniProt Q9Y275 1-285).
T2 construct: also called hBLyS; CHO-K1 hBLyS
Kind of test: flow cytometry (FACS) on CHO-K1 hBLyS cells, Alexa 488 secondary antibody. As to the method:
(§2) The medium was aspirated completely, and the cells were rinsed once with PBS buffer (purchased from Invitrogen) and then treated with cell dispersion solution (TrypLE™ Express Enzyme, purchased from Life technology) and collected. The detailed steps are as follows: the cells were rinsed once with PBS buffer, after counting, the cells were diluted to 2×10⁶ cells/ml with PBS buffer, blocked with 2% (w/w) fetal bovine serum and incubated on ice for 30 minutes. 200 μL of which per well was aliquoted into a 96-well FACS plate and centrifuged at 2000 rpm at 4° C., then each 100 μL of the lead antibodies obtained from Embodiment 1 and 2 were aliquoted into each well and incubated on ice for 1 hour. […] After centrifuged and rinsed 3 times with FACS buffer, cells were suspended with 200 μL of FACS buffer and the results were detected and analyzed by FACS (FACS Calibur, purchased from BD). It was shown in Tables 12-13 that the lead antibody could bind to human BLyS protein on the cell surface and the lead antibody could cross-react with cynomolgus BLyS. The data in the table is MFI, the average fluorescence intensity of the cell population.

In test [20] the target is T3, cynomolgus BLyS (full length, arginine 132 mutated to histidine) on CHO-K1 cells (cynomolgus, UniProt Q9Y275 1-285 (human entry)).
T3 construct: also called cyno BLyS; CHO-K1 cynoBLyS
T3 chain: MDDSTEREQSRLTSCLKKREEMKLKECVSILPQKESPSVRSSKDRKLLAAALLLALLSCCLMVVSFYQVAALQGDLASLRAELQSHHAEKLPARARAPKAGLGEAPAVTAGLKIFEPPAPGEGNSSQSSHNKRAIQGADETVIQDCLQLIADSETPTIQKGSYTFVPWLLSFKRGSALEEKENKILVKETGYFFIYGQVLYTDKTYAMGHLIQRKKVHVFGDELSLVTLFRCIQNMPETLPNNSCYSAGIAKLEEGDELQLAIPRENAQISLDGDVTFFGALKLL
Kind of test: flow cytometry (FACS) on CHO-K1 cynoBLyS cells, Alexa 488 secondary antibody. As for the experimental part:
as §2

Test [21] has as its target T1, biotinylated hBLyS-ECD. Put plainly: ELISA: biotinylated hBLyS-ECD captured on streptavidin, antibody titrated, HRP secondary antibody [label printed at the top of D00004]. As for the experimental part: as §1
Test [22] addresses T1, biotinylated hBLyS-ECD. Kind of test: ELISA: biotinylated hBLyS-ECD captured on streptavidin, antibody titrated, HRP secondary antibody. The source holds these as a separate data set.

T2 sequence (Q9Y275 other isoform, or with tags, fused parts or gaps limits assumed, change not shown): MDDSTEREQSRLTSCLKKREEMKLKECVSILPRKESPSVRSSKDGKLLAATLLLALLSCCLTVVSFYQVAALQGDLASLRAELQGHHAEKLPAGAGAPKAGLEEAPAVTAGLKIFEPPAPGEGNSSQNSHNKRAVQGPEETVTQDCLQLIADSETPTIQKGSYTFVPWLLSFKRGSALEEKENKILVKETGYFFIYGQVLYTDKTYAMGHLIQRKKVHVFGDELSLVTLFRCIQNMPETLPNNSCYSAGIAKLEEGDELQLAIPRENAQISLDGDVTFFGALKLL

For the molecule BLyS antibody (purchased from GSK), the OD450 nm in test [1] amounted to 3.36; in [2], 3.39; in test [3], 3.24; in test [4], 3.14; in test [5] it was 2.01; in test [6], 0.54. Further, the OD450 nm in test [7] was 0.08; in test [8], 0.19.

B1: c111D10D6G3 (antibody, human IgG1, V domains shown)
VH: QVQLQQPGAELVKPGASVKMSCKASGYTFTRHWITWVKQRPGQGLEWIGDIFPGSGSINYNEKFKSEATLTVEKSSSTAYMQLSSLTSEDSAVYYCARGDVDVWGTGTTVTVSS
VL: DIQMTQSPSSLSASLGERVSLTCRASQEIRGYLSWLQQKPNGTIKRLIYAASTLDSGVPKRFSATRSGSDFSLTISSLESEDFADYYCLQYASYPFTFGSGTKLEIK
notes: also called BLyS chimeric antibody
Turning to B1, the EC50 (read off the curve) – broadly, the concentration needed to bring the measured effect to its halfway point – with biotinylated hBLyS-ECD [9] was about 0.07 nM. The “IC50 (read off the curve)” value with biotinylated hBLyS-ECD [10] is about 0.08 nM.

B2: 8E7D9C7F5 (antibody, V domains shown)
VH: QVQLQQSGVELARPGASVKLSCKASGYTFTSYGISWVKQRTGQALEWIGEIYPRSGNTYYNEKFKGKATLTADKSSSTAYMELRSLTSEDSAVYFCARSGPITTLVATDYGMDYWGQGTSVTVSS
VL: DIVLTQSPASLAVSLGQRATISCRASKSVSTSSYSYMHWYQQKPGQPPKLLIKFASNLESGVPARFSGSGSGTDFTLNIHPVEEEDAATYYCQHSREFPYTFGGGTKLEIK
notes: Mouse hybridoma antibody purified on Protein G
As to B2, the OD450 nm in the test with biotinylated hBLyS-ECD [11] worked out at 2.56; in the test with biotinylated hBLyS-ECD [12] it was 2.53; with biotinylated hBLyS-ECD [13], 2.72; with biotinylated hBLyS-ECD [14], 0.946; in the test with biotinylated hBLyS-ECD [15], 2.06; in the test with biotinylated hBLyS-ECD [16], 0.291. For the same molecule, the values for the OD450 nm in the test with biotinylated hBLyS-ECD [17] and with biotinylated hBLyS-ECD [18] were 0.115 and 0.0564, respectively. The “EC50 (read off the curve)” value in [19] is about 0.1 nM; in test [20], about 0.1 nM; in the test with biotinylated hBLyS-ECD [21] it was about 0.2 nM.

B3: c97A3C2H4 (antibody, human IgG1, V domains shown)
VH: EVKLVESGGGLVQPGGSLKLSCAASGFTFSTYTMSWVRQTPEKRLEWVAYISYGGGSTSYPDTVKGRFTISRDNAKNTLYLQMSSLKSEDTAIYYCTRHVTVVENSMDYWGQGTSVTVSS
VL: DILLTQSPDILSVSPGERVSFSCRASQSIGTSIHWYQQRTNGSPRLLIKYVSESFSGTPSRFSGSGSGTAFTLTINSVESEDIADYYCQQTHSWPWTFGGGTKLEIK
notes: as for B1
Turning to B3, the figures for the “EC50 (read off the curve)” value in the test with biotinylated hBLyS-ECD [9] and with biotinylated hBLyS-ECD [22] were about 0.05 nM and about 0.1 nM, respectively. For the same molecule, in the test with biotinylated hBLyS-ECD [10], the “IC50 (read off the curve)” value was about 2 nM.
